Experiments:
[1] = tested on: S. aureus Sp10; experiment: MIC assay over several culture cycles (resistance development); format: cell-based, Staphylococcus aureus
Description: Becker et al. (Sci Rep. 2016 Apr. 28; 6:25063) reported construction of fusion protein L-K with reduced incidence of resistant S. aureus strain development. In an attempt to provide other improved fusion proteins against S. aureus, the inventors generated two fusion proteins, each comprising the CHAP domain of LysK endolysin, the M23 endopeptidase domain of lysostaphin; and the cell wall binding domain (CBD) of ALE-1. In addition, one of the fusion proteins did comprise the cathepsin G (77-83) peptide (SEQ ID NO:94), the other the cationic peptide KNK (SEQ ID NO:38). The resulting fusion proteins (SEQ ID NO:105 and SEQ ID NO: 107) were assayed for antibacterial activity and resistance development. For this purpose MIC (minimal inhibitory concentration) assays (see below) were carried out for several culture cycles.
MIC assay S. aureus Sp10 was grown in (Luria-Bertani) medium and diluted 1:10 in Mueller-Hinton medium. At an optical density OD600 of about 0.6, bacteria were diluted in the same medium 1:10 followed by a 1:500 dilution. Protein buffer (20 mM HEPES, 500 mM NaCl, pH 7.4) and proteins or gentamycin were pipetted into a 96 well plate, using different concentrations of proteins/gentamycin and an end volume of 20 μl. The proteins used were the fusion proteins according to SEQ ID NO:105 and SEQ ID NO: 107. 180 μl of bacterial cells or a medium (Mueller-Hinton) control were given to the 96 well plate and mixed. The plate was incubated for 18-22 hours at 37° C. and the bacterial growth was determined measuring the OD600 values of the wells. The well with the lowest concentration of protein/gentamycin showing the same OD600 value as the medium control was taken as MIC. For the next cycle, the bacterial solution from the sub-MIC well was used. The sub-MIC well is the well in which the next lower concentration to the MIC concentration was tested, i.e. the well with the highest concentration of protein/gentamycin but still OD600 above the medium control. For further cycles of the resistance assay, the bacteria from this sub-MIC well of the previous cycle were taken for the next over-night culture.

[2] = tested on: Staphylococcus aureus DSM 346; experiment: Thermal stability assay (standard MIC assay after heat incubation); format: cell-based; details: for MIC: protein 0.3 mg/ml, DSM 346; for thermal stability: in comparison to the unmodified fusion protein
Procedure: In addition, thermal stability was assessed for two of said mutants in comparison to the unmodified fusion protein. The thermal stability assay was carried out with the strain Staphylococcus aureus DSM 346. The proteins were diluted to a concentration of 0.3 mg/ml followed by an incubation for 20 minutes at different temperatures (see table 8 below). A standard MIC assay was carried out after this incubation time.

[3] = cycle 1 (initial MIC), S. aureus Sp10
[4] = cycle 1, fold change over initial MIC (cycle 1)
[5] = cycle 6, fold change over initial MIC (cycle 1)
[6] = cycle 12, fold change over initial MIC (cycle 1)
[7] = after 20 minutes incubation at 44.6° C.
[8] = after 20 minutes incubation at 47.1° C.
[9] = after 20 minutes incubation at 49.7° C.
[10] = after 20 minutes incubation at 52.3° C.
[11] = after 20 minutes incubation at 54.9° C.
[12] = after 20 minutes incubation at 57.4° C.
[13] = after 20 minutes incubation at 60° C.
[14] = after 20 minutes incubation at RT

Molecule	Minimal inhibitory concentration (MIC) [1, 3] [µg/mL]	Fold change of MIC [1, 4]	Minimal inhibitory concentration (MIC) ([1]; cycle 6, S. aureus Sp10) [µg/mL]	Fold change of MIC [1, 5]	Minimal inhibitory concentration (MIC) ([1]; cycle 12, S. aureus Sp10) [µg/mL]	Fold change of MIC [1, 6]	MIC [2, 7] [µg/mL]	MIC [2, 8] [µg/mL]	MIC [2, 9] [µg/mL]	MIC [2, 10] [µg/mL]	MIC [2, 11] [µg/mL]	MIC [2, 12] [µg/mL]	MIC [2, 13] [µg/mL]	MIC [2, 14] [µg/mL]	thermal stability [2]
gentamycin [reference compound]	0.8	1	4	5	6	7.5	–	–	–	–	–	–	–	–	–
Clone 11: variant of SEQ ID NO: 107 with mutations K17E, H51Q (protein, Fusion protein comprising CHAP domain of LysK endolysin, M23 endopeptidase domain of lysostaphin, cell wall binding domain of ALE-1, His6-tag and synthetic peptide KNK) MAKTQAEINKRLDAYAEGTVDSPYRVKKATSYDPSFGVMEAGAIDADGYYQAQCQDLITDYVLWLTDNKVRTWGNAKDQIKQSYGTGFKIHENKPSTVPKKGWIAVFTSGSYEQWGHIGIVYDGGNTSTFTILEQNWNGYANKKPTKRVDNYYGLTHFIEIPVKAGTTVKKETAKKSATSHEHSAQWLNNYKKGYGYGPYPLGINGGMHYGVDFFMNIGTPVKAISSGKIVEAGWSNYGGGNQIGLIENDGVHRQWYMHLSKYNVKVGDYVKAGQIIGWSGSTGYSTAPHLHFQRMVNSFSNSTAQDPMPFLKSAGYGKAGGTVTPTPNPGNGYKTNKYGTLYKSESASFTANTDIITRLTGPFRSMPQSGVLRKGLTIKYDEVMKQDGHVWVGYNTNSGKRVYLPVRTWNESTGELGPLWGTIKGSHHHHHHGGSKNK	–	–	–	–	–	–	6	10	10	16	>30	>30	>30	4	increased thermal stability
Clone 15: variant of SEQ ID NO: 107 with mutations K17E, H51Q, K28N, T86A, G154S (protein, Fusion protein comprising CHAP domain of LysK endolysin, M23 endopeptidase domain of lysostaphin, cell wall binding domain of ALE-1, His6-tag and synthetic peptide KNK) MAKTQAEINKRLDAYAEGTVDSPYRVKNATSYDPSFGVMEAGAIDADGYYQAQCQDLITDYVLWLTDNKVRTWGNAKDQIKQSYGAGFKIHENKPSTVPKKGWIAVFTSGSYEQWGHIGIVYDGGNTSTFTILEQNWNGYANKKPTKRVDNYYSLTHFIEIPVKAGTTVKKETAKKSATSHEHSAQWLNNYKKGYGYGPYPLGINGGMHYGVDFFMNIGTPVKAISSGKIVEAGWSNYGGGNQIGLIENDGVHRQWYMHLSKYNVKVGDYVKAGQIIGWSGSTGYSTAPHLHFQRMVNSFSNSTAQDPMPFLKSAGYGKAGGTVTPTPNPGNGYKTNKYGTLYKSESASFTANTDIITRLTGPFRSMPQSGVLRKGLTIKYDEVMKQDGHVWVGYNTNSGKRVYLPVRTWNESTGELGPLWGTIKGSHHHHHHGGSKNK	–	–	–	–	–	–	4	4	4	4	4	6	8	4	increased thermal stability
SEQ ID NO: 107: fusion protein: CHAP domain of LysK, M23 endopeptidase domain of lysostaphin, CBD of ALE-1 and a further peptide (cathepsin G (77-83) or KNK) (protein, Fusion protein comprising CHAP domain of LysK endolysin, M23 endopeptidase domain of lysostaphin, cell wall binding domain of ALE-1, His6-tag and synthetic peptide KNK) MAKTQAEINKRLDAYAKGTVDSPYRVKKATSYDPSFGVMEAGAIDADGYYHAQCQDLITDYVLWLTDNKVRTWGNAKDQIKQSYGTGFKIHENKPSTVPKKGWIAVFTSGSYEQWGHIGIVYDGGNTSTFTILEQNWNGYANKKPTKRVDNYYGLTHFIEIPVKAGTTVKKETAKKSATSHEHSAQWLNNYKKGYGYGPYPLGINGGMHYGVDFFMNIGTPVKAISSGKIVEAGWSNYGGGNQIGLIENDGVHRQWYMHLSKYNVKVGDYVKAGQIIGWSGSTGYSTAPHLHFQRMVNSFSNSTAQDPMPFLKSAGYGKAGGTVTPTPNPGNGYKTNKYGTLYKSESASFTANTDIITRLTGPFRSMPQSGVLRKGLTIKYDEVMKQDGHVWVGYNTNSGKRVYLPVRTWNESTGELGPLWGTIKGSHHHHHHGGSKNK	4	1	4	1	6	1.5	20	25	30	30	>30	>30	>30	6	–
SEQ ID NO: 105: fusion protein: CHAP domain of LysK, M23 endopeptidase domain of lysostaphin, CBD of ALE-1 and a further peptide (cathepsin G (77-83) or KNK) (protein, Fusion protein comprising CHAP domain of LysK endolysin, M23 endopeptidase domain of lysostaphin, cell wall binding domain of ALE-1, His6-tag and synthetic peptide HPQYNQR) MAKTQAEINKRLDAYAKGTVDSPYRVKKATSYDPSFGVMEAGAIDADGYYHAQCQDLITDYVLWLTDNKVRTWGNAKDQIKQSYGTGFKIHENKPSTVPKKGWIAVFTSGSYEQWGHIGIVYDGGNTSTFTILEQNWNGYANKKPTKRVDNYYGLTHFIEIPVKAGTTVKKETAKKSATSHEHSAQWLNNYKKGYGYGPYPLGINGGMHYGVDFFMNIGTPVKAISSGKIVEAGWSNYGGGNQIGLIENDGVHRQWYMHLSKYNVKVGDYVKAGQIIGWSGSTGYSTAPHLHFQRMVNSFSNSTAQDPMPFLKSAGYGKAGGTVTPTPNPGNGYKTNKYGTLYKSESASFTANTDIITRLTGPFRSMPQSGVLRKGLTIKYDEVMKQDGHVWVGYNTNSGKRVYLPVRTWNESTGELGPLWGTIKHHHHHHLKHPQYNQR	4	1	4	1	6	1.5	–	–	–	–	–	–	–	–	–

Reference: patent US11427812B2, “Antimicrobial agents against Staphylococcus aureus” (LYSANDO AG, priority 2016, dated 2022)
